Test results reported in article PMC11481497.

Target: His-CaDpb3 (Dpb3 subunit of DNA polymerase epsilon of C. albicans, wild type) (C. albicans)
Assay: ITC; 20 µM wild-type or mutant CaDpb3 in the sample cell, 100 µM CaDpb4 injected from the syringe (25 injections of 1.5 µL); 25°C; 20 mM HEPES pH 7.4, 150 mM NaCl; one-site binding model

His-CaDpb4 (Dpb4 subunit of DNA polymerase epsilon of C. albicans, wild type) (from UniProt A0A1D8PG40 1-261) (natural protein)
Kd: 55 µM
stoichiometry N: 1
